From US20160136234A1

Legend:
Experiment in all cases: cell-based or functional assay
MST2 (h) (human) = target: T1, MST2 (h) (human) (UniProt Q13188)
T1 sequence (looked up): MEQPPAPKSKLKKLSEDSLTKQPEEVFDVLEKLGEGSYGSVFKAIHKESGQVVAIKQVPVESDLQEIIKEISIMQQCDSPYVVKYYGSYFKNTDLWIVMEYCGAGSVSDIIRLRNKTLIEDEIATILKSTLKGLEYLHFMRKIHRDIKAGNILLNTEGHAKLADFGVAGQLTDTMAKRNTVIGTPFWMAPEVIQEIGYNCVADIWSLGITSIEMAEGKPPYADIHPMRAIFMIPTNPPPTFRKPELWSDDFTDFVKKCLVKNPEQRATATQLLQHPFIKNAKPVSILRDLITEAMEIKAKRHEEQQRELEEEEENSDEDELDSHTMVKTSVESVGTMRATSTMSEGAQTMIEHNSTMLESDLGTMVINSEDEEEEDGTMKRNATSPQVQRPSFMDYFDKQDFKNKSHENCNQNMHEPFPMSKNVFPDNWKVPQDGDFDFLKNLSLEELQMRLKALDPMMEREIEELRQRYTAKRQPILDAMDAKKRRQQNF

CaMKIV (h) (human) = CaMKIV (h) (human) (UniProt Q16566)
Ros (h) (human) = Ros (h) (human) (UniProt P08922)
PhKγ2 (h) (human) = target: T2, PhKγ2 (h) (human) (UniProt P15735)
T2 sequence (looked up): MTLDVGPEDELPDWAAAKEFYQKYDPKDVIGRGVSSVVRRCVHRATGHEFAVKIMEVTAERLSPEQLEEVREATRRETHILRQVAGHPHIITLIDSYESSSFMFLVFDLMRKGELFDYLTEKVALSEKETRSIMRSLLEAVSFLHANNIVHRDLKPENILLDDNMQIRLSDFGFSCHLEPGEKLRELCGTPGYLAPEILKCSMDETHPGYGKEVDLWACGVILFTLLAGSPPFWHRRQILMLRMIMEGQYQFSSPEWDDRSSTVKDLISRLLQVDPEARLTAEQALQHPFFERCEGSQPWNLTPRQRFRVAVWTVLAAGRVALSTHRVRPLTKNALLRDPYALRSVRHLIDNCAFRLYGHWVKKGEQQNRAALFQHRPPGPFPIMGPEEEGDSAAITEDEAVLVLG

GCK (h) (human) = target: T3, GCK (h) (human) (UniProt Q12851)
T3 sequence (looked up): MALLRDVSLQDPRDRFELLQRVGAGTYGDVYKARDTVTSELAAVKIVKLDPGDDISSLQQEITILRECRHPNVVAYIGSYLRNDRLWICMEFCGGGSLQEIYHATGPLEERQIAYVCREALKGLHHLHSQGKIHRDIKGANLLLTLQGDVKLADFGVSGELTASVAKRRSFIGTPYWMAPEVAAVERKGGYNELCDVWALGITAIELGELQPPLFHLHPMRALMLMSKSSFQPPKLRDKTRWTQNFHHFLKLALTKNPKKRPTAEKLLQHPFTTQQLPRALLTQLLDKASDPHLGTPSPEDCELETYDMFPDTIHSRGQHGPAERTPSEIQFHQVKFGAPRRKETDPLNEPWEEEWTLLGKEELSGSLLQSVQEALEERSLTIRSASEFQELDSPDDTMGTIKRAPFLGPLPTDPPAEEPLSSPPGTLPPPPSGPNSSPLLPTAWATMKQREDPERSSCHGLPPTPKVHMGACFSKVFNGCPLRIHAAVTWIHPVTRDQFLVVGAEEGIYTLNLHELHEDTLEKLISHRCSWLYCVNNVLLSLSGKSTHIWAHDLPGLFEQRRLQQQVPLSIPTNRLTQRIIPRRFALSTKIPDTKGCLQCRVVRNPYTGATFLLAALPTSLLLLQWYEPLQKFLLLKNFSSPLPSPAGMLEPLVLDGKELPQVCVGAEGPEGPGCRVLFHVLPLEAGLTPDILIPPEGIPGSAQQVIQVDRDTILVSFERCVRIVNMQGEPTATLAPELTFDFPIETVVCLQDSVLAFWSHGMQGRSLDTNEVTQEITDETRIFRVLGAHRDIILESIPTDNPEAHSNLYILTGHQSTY

IR (h) (human) = IR (h) (human) (UniProt P06213)
IKKα (h) (human) = target: T4, IKKα (h) (human) (UniProt O15111)
T4 sequence (looked up): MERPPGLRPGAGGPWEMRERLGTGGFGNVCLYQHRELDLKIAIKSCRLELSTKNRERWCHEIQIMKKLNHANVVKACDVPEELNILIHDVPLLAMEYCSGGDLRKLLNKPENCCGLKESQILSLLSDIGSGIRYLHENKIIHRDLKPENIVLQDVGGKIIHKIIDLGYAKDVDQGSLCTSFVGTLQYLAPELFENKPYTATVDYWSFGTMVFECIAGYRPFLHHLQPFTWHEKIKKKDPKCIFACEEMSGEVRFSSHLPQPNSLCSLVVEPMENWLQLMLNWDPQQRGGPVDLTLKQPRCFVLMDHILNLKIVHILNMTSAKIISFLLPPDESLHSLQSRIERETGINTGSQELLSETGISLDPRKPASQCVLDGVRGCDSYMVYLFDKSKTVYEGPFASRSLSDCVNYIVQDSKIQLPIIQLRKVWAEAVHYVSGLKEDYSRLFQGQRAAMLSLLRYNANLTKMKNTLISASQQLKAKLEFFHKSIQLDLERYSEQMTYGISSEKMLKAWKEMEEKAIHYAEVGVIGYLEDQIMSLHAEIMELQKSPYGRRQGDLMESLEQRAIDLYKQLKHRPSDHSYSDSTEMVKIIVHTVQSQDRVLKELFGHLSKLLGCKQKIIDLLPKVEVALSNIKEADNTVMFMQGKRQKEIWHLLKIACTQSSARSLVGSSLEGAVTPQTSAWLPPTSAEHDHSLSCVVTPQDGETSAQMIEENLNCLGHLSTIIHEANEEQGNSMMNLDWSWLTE

LKB1 (h) (human) = target: T5, LKB1 (h) (human) (UniProt Q15831)
T5 sequence (looked up): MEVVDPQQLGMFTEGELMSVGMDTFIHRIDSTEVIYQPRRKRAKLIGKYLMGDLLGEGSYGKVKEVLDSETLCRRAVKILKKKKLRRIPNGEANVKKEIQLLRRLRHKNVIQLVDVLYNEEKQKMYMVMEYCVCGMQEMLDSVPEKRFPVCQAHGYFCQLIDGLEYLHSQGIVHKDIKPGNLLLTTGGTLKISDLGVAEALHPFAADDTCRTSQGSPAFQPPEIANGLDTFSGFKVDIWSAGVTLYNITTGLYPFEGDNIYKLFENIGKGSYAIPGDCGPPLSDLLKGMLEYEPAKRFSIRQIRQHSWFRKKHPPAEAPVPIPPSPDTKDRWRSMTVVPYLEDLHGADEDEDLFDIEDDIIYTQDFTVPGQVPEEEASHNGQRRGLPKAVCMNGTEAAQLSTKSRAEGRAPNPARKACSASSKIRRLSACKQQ

Chain of IR (h) (human) (P06213 1005-1310 limits assumed): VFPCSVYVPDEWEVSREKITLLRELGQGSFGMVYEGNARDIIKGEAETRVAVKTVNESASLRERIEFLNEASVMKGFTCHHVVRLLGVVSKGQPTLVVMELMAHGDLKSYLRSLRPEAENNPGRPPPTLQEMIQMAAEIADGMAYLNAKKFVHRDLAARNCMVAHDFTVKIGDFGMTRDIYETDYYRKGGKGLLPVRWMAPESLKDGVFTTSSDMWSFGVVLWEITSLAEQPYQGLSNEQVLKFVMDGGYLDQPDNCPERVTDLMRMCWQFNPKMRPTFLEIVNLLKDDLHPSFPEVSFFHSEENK
Chain of Ros (h) (human) (P08922 1883-2347 limits assumed): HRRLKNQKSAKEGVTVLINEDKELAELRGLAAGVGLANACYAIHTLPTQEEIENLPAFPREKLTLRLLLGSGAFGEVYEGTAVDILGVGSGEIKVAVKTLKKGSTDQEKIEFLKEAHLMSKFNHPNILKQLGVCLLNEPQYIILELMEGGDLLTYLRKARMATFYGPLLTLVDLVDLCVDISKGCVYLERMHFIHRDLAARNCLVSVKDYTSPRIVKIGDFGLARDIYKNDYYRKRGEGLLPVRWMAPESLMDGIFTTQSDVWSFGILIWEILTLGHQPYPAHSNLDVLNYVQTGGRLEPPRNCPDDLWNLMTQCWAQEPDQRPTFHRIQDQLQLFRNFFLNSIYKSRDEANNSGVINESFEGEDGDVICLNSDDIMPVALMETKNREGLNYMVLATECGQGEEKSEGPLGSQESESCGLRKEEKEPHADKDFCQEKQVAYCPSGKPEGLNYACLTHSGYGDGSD

With MMI-0300 (peptide) the % activity at 100 µM (MST2 (h) (human)) was 19%, the % activity at 100 µM (CaMKIV (h) (human)) was 17% and the % activity at 100 µM (Ros (h) (human)) was 95%. It also gave a % activity at 100 µM (PhKγ2 (h) (human)) of 46%, a % activity at 100 µM (GCK (h) (human)) of 70% and a % activity at 100 µM (IR (h) (human)) of 96%. It also gave a % activity at 100 µM (IKKα (h) (human)) of 93% and a % activity at 100 µM (LKB1 (h) (human)) of 101%.
